Tests used:
[1] = sADH (ADH) activity in crude cell lysate of E. coli production strains, oxidation of NAD(P)H with acetoin; format: biochemical; conditions: expressed in E. coli, excess substrate, NADPH
Protocol: (§1) Alcohol dehydrogenase (ADH) activity was determined by measuring the oxidation of NAD(P)H. The reaction mixture contained 50 mM 3-(N-morpholino) propanesulfonic acid (MOPS) pH 7.0, 25 mM acetoin and 0.2 mM NAD(P)H. The consumption of NAD(P)H was monitored at 340 nm. One specific unit of ADH activity corresponds to the oxidation of 1 nmol of NAD(P)H per minute per mg of protein.
The resulting E. coli strains were cultured in modified M9 medium, containing 50 g/L glucose, at 30° C. for 40 h (FIG. 4B). […] The fourth strain, expressing adh (C. b.), maintained a relatively low acetoin concentration (less than 6% of total production) and produced 13.8 g/L total 23BD as a mixture of (R,R)-23BD and meso-23BD stereoisomers forming 74% and 21% of total production respectively (FIG. 4B). The strains expressing adh (T. b.) and adh (C. p.) produced 2.4 g/L and 14.2 g/L 23BD respectively with both isomers formed in roughly equal amounts in each. […] Enzyme activities measured from crude cell lysate isolated during production were high for both sADH (C. p.) and sADH (C. b.), at 265 and 440 nmol min^−1 mg^−1 respectively, when excess substrate was used (FIG. 4B). […] The major 23BD product of each of the adh expressing strains matched the stereochemistry predicted by previous characterization (41-43).

[2] = ADH activity in crude cell lysate of modified S. elongatus strains, oxidation of NAD(P)H with acetoin; format: biochemical; conditions: for ADH enzyme activity in crude cell lysate: expressed in S. elongatus, lysate isolated during production
Protocol: Enzyme Assays. S. elongatus cells were collected 72 h after induction by centrifugation (4000 g, 5 min, washed in 50 mM potassium phosphate buffer (pH 7.5) and resuspended in the same buffer. Crude extract were prepared with 0.1-mm glass beads and a Mini bead beater (Mini Bead Beater 8 (BioSpec Products, Inc., Bartlesville, Okla.)). The total protein determination was performed by Advanced Protein Assay Reagent from Cytoskeleton, Inc. (Denver, Colo.).
as §1
23BD production was detected in three out of four S. elongatus strains (FIG. 4C). […] The strain expressing adh (T. b.) produced 301 mg/L (R,R)-23BD with trace amounts of meso-23BD but also allowed for accumulation of acetoin (FIG. 4C). The strain expressing adh (C. b.) produced 270 mg/L (R,R)-23BD (major) and undetectable levels of acetoin, indicating high flux through the intermediate. The strain expressing adh (C. p.) produced 65 mg L^−1 23BD, with meso-23BD as the primary product and accumulated toxic levels of acetoin. The remaining S-installing adh (L. p.) was not active in S. elongatus, resulting only in accumulation of acetoin. […] Activity for adh (C. p.) was roughly 5-fold higher again than adh (C. b.), however low production and acetoin accumulation was observed, similar to the result in E. coli. […] The two sADH with highest production and lowest acetoin accumulation were further tested with the stronger ALDC gene alsD (A. h.). Both strains increased production, yielding 568 mg L^−1 from adh (T. b.) and 952 mg L^−1 from adh (C. b.), the latter of which is 3 fold higher than production with alsD (E. a.) over 72 hours (FIG. 4C).

Row | Molecule | sADH enzyme activity in crude cell lysate [1] | ADH enzyme activity in crude cell lysate [2] | fold higher activity than adh (T. b.) ([2]; S. elongatus crude cell lysate) | fold higher activity than adh (C. b.) ([2]; S. elongatus crude cell lysate)
1 | sADH (T. b.): Thermoanaerobacter brockii HTD4 secondary alcohol dehydrogenase, NADPH, R-installing (SEQ ID NO: 23) (protein, listed as Thermoanaerobacter brockii) MKGFAMLSIGKVGWIEKEKPAPGPFDAIVRPLAVAPCTSDIHTVFEGAIGERHNMILGHEAVGEVVEVGSEVKDFKPGDRVVVPAITPDWRTSEVQRGYHQHSGGMLAGWKFSNVKDGVFGEFFHVNDADMNLAHLPKEIPLEAAVMIPDMMTTGFHGAELADIELGATVAVLGIGPVGLMAVAGAKLRGAGRIIAVGSRPVCVDAAKYYGATDIVNYKDGPIESQIMNLTEGKGVDAAIIAGGNADIMATAVKIVKPGGTIANVNYFGEGEVLPVPRLEWGCGMAHKTIKGGLCPGGRLRMERLIDLVFYKRVDPSKLVTHVFRGFDNIEKAFMLMKDKPKDLIKPVVILA | Relatively low activity | 6.3 nmol min^−1 mg ^−1 | – | –
2 | sADH (C. b.): Clostridium beijerinckii NRRL B593 secondary alcohol dehydrogenase, NADPH, R-installing (SEQ ID NO: 21) (protein, listed as Clostridium beijerinckii) MKGFAMLGINKLGWIEKERPVAGSYDAIVRPLAVSPCTSDIHTVFEGALGDRKNMILGHEAVGEVVEVGSEVKDFKPGDRVIVPCTTPDWRSLEVQAGFQQHSNGMLAGWKFSNFKDGVFGEYFHVNDADMNLAILPKDMPLENAVMITDMMTTGFHGAELADIQMGSSVVVIGIGAVGLMGIAGAKLRGAGRIIGVGSRPICVEAAKFYGATDILNYKNGHIVDQVMKLTNGKGVDRVIMAGGGSETLSQAVSMVKPGGIISNINYHGSGDALLIPRVEWGCGMAHKTIKGGLCPGGRLRAEMLRDMVVYNRVDLSKLVTHVYHGFDHIEEALLLMKDKPKDLIKAVVIL | 440 nmol/min/mg | 56.3 nmol min^−1 mg ^−1 | roughly 10 fold | –
3 | sADH (C. p.): Candida parapsilosis M203011 secondary alcohol dehydrogenase, NADPH, S-installing (SEQ ID NO: 17) (protein, listed as Candida parapsilosis) MGEIESYCNKELGPLPTKAPTLSKNVLDLFSLKGKVASVTGSSGGIGWAVAEAYAQAGADVAIWYNSHPADEKAEHLQKTYGVHSKAYKCNISDPKSVEETISQQEKDFGTIDVFVANAGVTWTQGPEIDVDNYDSWNKIISVDLNGVYYCSHNIGKIFKKNGKGSLIITSSISGKIVNIPQLQAPYNTAKAACTHLAKSLAIEWAPFARVNTISPGYIDTDITDFASKDMKAKWWQLTPLGREGLTQELVGGYLYLASNASTFTTGSDVVIDGGYTCP | 265 nmol/min/mg | – | – | roughly 5 fold
4 | adh (L. p.): Leuconostoc pseudomesenteroides CHCC 2114 secondary alcohol dehydrogenase, NADPH, S-installing (SEQ ID NO: 19) (protein, Leuconostoc pseudomesenteroides) MTKKVAMVTGGAQGIGEAIVRRLSADGFAVAVADLNEAKSKEVATDIEKNGGTAIAVKLDVSDREGFFAAVKEVAEKLGGFDVLVNNAGLGPTTPIDTITPELFDKVYHINVAGDIWGIQAAVEQFKKNGNGGKIINATSQAGVVGNPNLSLYSSTKFAVRGLTQVAARDLAEQNITVNAYAPGIVKTPMMFDIAHEVGKNAGKDDEWGMQTFAKDIALKRLSEPEDVAAAVAFLAGPDSNYITGQTIEVDGGMQFH | – | could not be detected | – | –

— patent US9428773B2, “Methods of producing acetoin and 2,3-butanediol using photosynthetic microorganisms” (The Regents of the University of California, priority 2012, dated 2016)
